{"source": "paper PMC3338619", "about": "“Ligand Binding Study of Human PEBP1/RKIP: Interaction with Nucleotides and Raf-1 Peptides Evidenced by NMR and Mass Spectrometry” (PLoS ONE, 2012)", "binders": {"B1": {"name": "tri-phosphorylated Raf-1 peptide (residues 331-349) (peptide)", "peptide": "RPRGQRD[pS][pS]Y[pY]WEIEASEV", "notes": "Raf-1 N-region, residues 331-349; three phospho-amino acids at Ser338, Ser339 and Tyr341; also called 3P; Raf-1 peptide; Raf-1 peptide in tri-phosphorylated form; source: synthetic peptide (solid-phase, Fmoc strategy)"}}, "key": {"[1]": {"molecular_target": "T1, Human Phosphatidylethanolamine binding protein 1 (hPEBP1) (human, UniProt P30086 1-187)", "T1 construct": "the NMR assignment counts 187 residues in all, from Met1 to Lys187; The NMR samples were uniformly 15N-labelled; also called RKIP; source: E. coli BL21 (DE3), pET31b, purified (anion exchange, cation exchange); 15N-labelled for NMR, non-labelled recombinant for mass spectrometry", "T1 sequence (P30086 whole entry)": "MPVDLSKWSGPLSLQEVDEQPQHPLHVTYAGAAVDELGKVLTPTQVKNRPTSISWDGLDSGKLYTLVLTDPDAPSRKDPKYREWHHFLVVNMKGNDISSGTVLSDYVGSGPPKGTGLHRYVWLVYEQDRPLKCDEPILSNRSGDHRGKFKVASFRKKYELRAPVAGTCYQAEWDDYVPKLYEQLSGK", "experiment": "native MS; hPEBP1 incubated with a range of peptide concentrations, bound protein fraction measured by ESI-MS; ammonium bicarbonate (ABC), pH 7.4, 25°C", "conditions": "both partners purified"}, "[2]": {"molecular_target": "T1, Human Phosphatidylethanolamine binding …", "experiment": "native MS; hPEBP1 incubated with a range of peptide concentrations, bound protein fraction measured by ESI-MS; ammonium acetate 20 mM, pH 6.6, 20°C", "conditions": "both partners purified"}}, "note": "Square brackets hold non-standard residues; d marks the D form. Ends that are not written are not given here. pY = N[C@@H](Cc1ccc(OP(=O)(O)O)cc1)C(=O)O; pS = N[C@@H](COP(=O)(O)O)C(=O)O"}
{"binder": "B1", "values": [{"measurement": "Kd", "setting": "[1]", "value": "11 ± 3", "unit": "µM"}, {"measurement": "Kd", "setting": "[2]", "value": "45 ± 12", "unit": "µM"}]}
